Experimental data taken from PMC6050537, “Inhibition of low-density lipoprotein receptor degradation with a cyclic peptide that disrupts the homodimerization of IDOL E3 ubiquitin ligase” (Chemical Science, 2018).
Non-standard residues stand in square brackets, D forms with d. Phe(4-NO2) = N[C@@H](Cc1ccc([N+](=O)[O-])cc1)C(=O)O; Phe(4-CN) = N#Cc1ccc(C[C@H](N)C(=O)O)cc1; Phe(4-Cl) = N[C@@H](Cc1ccc(Cl)cc1)C(=O)O; Phe(4-F) = N[C@@H](Cc1ccc(F)cc1)C(=O)O; Phe(4-Me) = Cc1ccc(C[C@H](N)C(=O)O)cc1; hPhe = N[C@@H](CCc1ccccc1)C(=O)O

T1: Full length IDOL (1–445), Q8WY64
T1 chain: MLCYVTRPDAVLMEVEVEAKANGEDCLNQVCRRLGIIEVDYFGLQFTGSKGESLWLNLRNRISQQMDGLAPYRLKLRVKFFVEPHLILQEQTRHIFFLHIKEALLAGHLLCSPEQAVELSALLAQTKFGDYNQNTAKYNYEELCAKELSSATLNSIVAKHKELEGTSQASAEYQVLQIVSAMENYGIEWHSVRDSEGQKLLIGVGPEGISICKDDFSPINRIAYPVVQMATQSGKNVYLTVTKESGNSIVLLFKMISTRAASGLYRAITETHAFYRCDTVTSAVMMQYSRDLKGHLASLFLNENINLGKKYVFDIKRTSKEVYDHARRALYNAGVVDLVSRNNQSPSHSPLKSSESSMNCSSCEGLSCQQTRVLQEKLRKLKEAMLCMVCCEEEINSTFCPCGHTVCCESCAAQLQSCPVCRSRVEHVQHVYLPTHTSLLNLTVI


Biological target: T1, Full length IDOL (1–445), Q8WY64
Test: MST
Conditions: modification not given; NT-647-NHS dye (only the labelled copy in the MST assays)

Binder	Kd [µM]
cyclo(CF[Phe(4-Me)]LYT) (not fully specified) [RINGPep1 derivative with 4-methy-phenylalanine at position 3]	23.1
cyclo(CF[Phe(4-CN)]LYT) (not fully specified) [RINGPep1 derivative with 4-cyano-phenylalanine at position 3]	36.2
cyclo(CF[Phe(4-F)]LYT) (not fully specified) [RINGPep1 derivative with 4-fluoro-phenylalanine at position 3]	35.2

The next lines start with the values.

Kd [µM]	Binder
23.6	cyclo(CF[hPhe]LYT) (not fully specified) [RINGPep1 derivative with homo-phenylalanine at position 3]
12	cyclo(CF[Phe(4-Cl)]LYT) (not fully specified) [RINGPep1 derivative with 4-chloro-phenylalanine at position 3]
35.7	cyclo(CF[Phe(4-NO2)]LYT) (not fully specified) [RINGPep1 derivative with 4-nitro-phenylalanine at position 3]

biological target: Full length IDOL (1–445) (UniProt Q8WY64); test: MST; Monolith NT.115; 6× His IDOL labelled with NT-647-NHS dye at 50 nM, peptides titrated; 10 mM HEPES, 300 mM NaCl, 1 mM TCEP, 0.05% TWEEN-20, pH 8.0, 5% DMSO; conditions: not given

Kd [µM]	Binder
38.5	CFFLYT (cyclic backbone (cyclo-)) [cyclo-CFFLYT]

biological target: Full length IDOL (1–445) (UniProt Q8WY64); test: SPR; Biacore S200; 6× His-tagged full-length IDOL immobilized on an NTA chip (~6000 RU), peptides as analytes; 10 mM HEPES, 300 mM NaCl, 1 mM TCEP, 0.05% Tween 20, 4% DMSO, pH 8.0; saturation at the highest concentrations not observed; conditions: not given

Kd [µM]	Binder
38.5	CFFLYT (cyclic backbone (cyclo-)) [cyclo-CFFLYT]
20.9	CTIFLL (cyclic backbone (cyclo-)) [cyclo-CTIFLL]
